In article PMC10786891, “Massively parallel profiling of RNA-targeting CRISPR-Cas13d”:
Residue numbers refer to the chain shown, from its start. In names and notes the source's numbering stands.

T1: EsCas13d, nuclease-dead (Eubacterium siraeum, UniProt B0MS50, R295A;H300A;R849A;H854A)
T1 sequence: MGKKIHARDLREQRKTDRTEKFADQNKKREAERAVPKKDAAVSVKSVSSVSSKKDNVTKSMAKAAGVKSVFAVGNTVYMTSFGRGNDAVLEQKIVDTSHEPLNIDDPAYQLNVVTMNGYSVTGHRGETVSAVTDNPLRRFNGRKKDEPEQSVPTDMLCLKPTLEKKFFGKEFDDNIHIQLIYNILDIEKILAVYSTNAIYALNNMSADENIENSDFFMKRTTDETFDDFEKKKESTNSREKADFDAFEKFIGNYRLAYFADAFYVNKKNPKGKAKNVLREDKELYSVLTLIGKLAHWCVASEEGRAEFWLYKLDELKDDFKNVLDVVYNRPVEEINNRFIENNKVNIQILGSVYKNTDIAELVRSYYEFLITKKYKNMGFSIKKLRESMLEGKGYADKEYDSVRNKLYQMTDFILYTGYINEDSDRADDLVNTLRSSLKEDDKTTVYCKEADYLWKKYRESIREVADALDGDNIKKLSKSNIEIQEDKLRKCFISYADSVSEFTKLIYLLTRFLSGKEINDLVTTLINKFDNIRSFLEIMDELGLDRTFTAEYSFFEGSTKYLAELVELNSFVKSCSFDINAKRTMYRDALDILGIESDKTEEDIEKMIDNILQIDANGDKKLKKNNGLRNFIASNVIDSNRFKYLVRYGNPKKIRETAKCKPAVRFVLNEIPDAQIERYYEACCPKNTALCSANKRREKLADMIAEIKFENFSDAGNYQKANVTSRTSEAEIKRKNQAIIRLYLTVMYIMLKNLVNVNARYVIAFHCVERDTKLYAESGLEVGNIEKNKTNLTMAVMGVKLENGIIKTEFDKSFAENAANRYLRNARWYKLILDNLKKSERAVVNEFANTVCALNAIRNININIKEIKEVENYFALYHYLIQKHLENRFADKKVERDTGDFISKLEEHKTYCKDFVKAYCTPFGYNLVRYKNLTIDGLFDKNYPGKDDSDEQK

B1: target 1 insU 3' of 17,insC 3' of 15 (mixed)
RNA 1: CACCCGUGCAAAAAUGCAGGGGUCUAAAACUGAGCGGAUAACCUCUCUAUGG
RNA 2: GGGAAUGGAUCCACAUCUACGAAUUCGUACCAUAGUAGCAGGUUAUCCGCUCACCGAGAUCGGAAGAGCACACGU
B2: target 1 C4G,C6A (mixed)
RNA 1: B1 RNA 1
RNA 2: GGGAAUGGAUCCACAUCUACGAAUUCGUACCAUAGAGAGGUUAUCAGGUCACCGAGAUCGGAAGAGCACACGU
B3: target 1 del1,del2 (mixed)
RNA 1: B1 RNA 1
RNA 2: GGGAAUGGAUCCACAUCUACGAAUUCGUACCAUAGAGAGGUUAUCCGCUCCGAGAUCGGAAGAGCACACGU
B4: target 1 C2U,A16U (mixed)
RNA 1: B1 RNA 1
RNA 2: B2 RNA 2 with A36U, A46C, G48C, C50U
B5: target 1 insU 3' of 15,insG 3' of 2 (mixed)
RNA 1: B1 RNA 1
RNA 2: GGGAAUGGAUCCACAUCUACGAAUUCGUACCAUAGAGUAGGUUAUCCGCUCGACCGAGAUCGGAAGAGCACACGU
B6: target 1 insG 3' of 11,insC 3' of 11 (mixed)
RNA 1: B1 RNA 1
RNA 2: B1 RNA 2 with U36A, A37G, G38A, C39G, A40G, G41U, U43C
B7: target 1 U19C,C22A (mixed)
RNA 1: B1 RNA 1
RNA 2: B2 RNA 2 with C30A, U33C, A46C, G48C
B8: target 1 U8G,G13U (mixed)
RNA 1: B1 RNA 1
RNA 2: B2 RNA 2 with G39U, U44G, A46C, G48C
B9: target 1 insG 3' of 14,insU 3' of 1 (mixed)
RNA 1: B1 RNA 1
RNA 2: B5 RNA 2 with U38A, A39G, G52A, A53U
B10: target 1 insG 3' of 14,insA 3' of 2 (mixed)
RNA 1: B1 RNA 1
RNA 2: B5 RNA 2 with U38A, A39G, G52A
B11: target 1 insA 3' of 10,insU 3' of 2 (mixed)
RNA 1: B1 RNA 1
RNA 2: B5 RNA 2 with U38A, A39G, G41U, U43A, G52U
B12: target 1 insG 3' of 11,insA 3' of 2 (mixed)
RNA 1: B1 RNA 1
RNA 2: B5 RNA 2 with U38A, A39G, G41U, U42G, G52A
B13: target 1 insG 3' of 11,insC 3' of 1 (mixed)
RNA 1: B1 RNA 1
RNA 2: B5 RNA 2 with U38A, A39G, G41U, U42G, G52A, A53C
B14: target 1 del11,del16 (mixed)
RNA 1: B1 RNA 1
RNA 2: GGGAAUGGAUCCACAUCUACGAAUUCGUACCAUAGGAGGUAUCCGCUCACCGAGAUCGGAAGAGCACACGU
B15: target 1 insC 3' of 22,insC 3' of 22 (mixed)
RNA 1: B1 RNA 1
RNA 2: B1 RNA 2 with A32C, U33C, G35U, U36A, A37G, G38A, C39G
B16: target 1 U3A,A20U (mixed)
RNA 1: B1 RNA 1
RNA 2: B2 RNA 2 with A32U, A46C, G48C, U49A
B17: target 1 insG 3' of 11,insU 3' of 1 (mixed)
RNA 1: B1 RNA 1
RNA 2: B5 RNA 2 with U38A, A39G, G41U, U42G, G52A, A53U
B18: target 1 insG 3' of 11,insG 3' of 1 (mixed)
RNA 1: B1 RNA 1
RNA 2: B5 RNA 2 with U38A, A39G, G41U, U42G, G52A, A53G
B19: target 1 insG 3' of 14,insC 3' of 1 (mixed)
RNA 1: B1 RNA 1
RNA 2: B5 RNA 2 with U38A, A39G, G52A, A53C
B20: target 1 A18U,C21U (mixed)
RNA 1: B1 RNA 1
RNA 2: B2 RNA 2 with C31U, A34U, A46C, G48C
B21: target 1 insC 3' of 19,insG 3' of 19 (mixed)
RNA 1: B1 RNA 1
RNA 2: B1 RNA 2 with A34C, U36A, A37G, G38A, C39G
B22: target 1 insA 3' of 17,insA 3' of 17 (mixed)
RNA 1: B1 RNA 1
RNA 2: B1 RNA 2 with U36A, G38A, C39G
B23: target 1 insU 3' of 22,insU 3' of 6 (mixed)
RNA 1: B1 RNA 1
RNA 2: GGGAAUGGAUCCACAUCUACGAAUUCGUACUCAUAGAGAGGUUAUCCUGCUCACCGAGAUCGGAAGAGCACACGU
B24: target 1 insC 3' of 12,insU 3' of 9 (mixed)
RNA 1: B1 RNA 1
RNA 2: B5 RNA 2 with U38A, A39G, G41C, C46U, G48C, C49G, U50C, C51U, G52C
B25: target 1 insG 3' of 14,insG 3' of 1 (mixed)
RNA 1: B1 RNA 1
RNA 2: B5 RNA 2 with U38A, A39G, G52A, A53G
B26: target 1 G17A,C21U (mixed)
RNA 1: B1 RNA 1
RNA 2: B2 RNA 2 with C31U, G35A, A46C, G48C
B27: target 1 insG 3' of 21,insU 3' of 12 (mixed)
RNA 1: B1 RNA 1
RNA 2: B23 RNA 2 with U31C, C32G, A44U, U45A, C46U, U48C
B28: target 1 insC 3' of 15,insA 3' of 3 (mixed)
RNA 1: B1 RNA 1
RNA 2: B5 RNA 2 with U38C, C51A, G52C
B29: target 1 U3A,G12A (mixed)
RNA 1: B1 RNA 1
RNA 2: B2 RNA 2 with G40A, A46C, G48C, U49A
B30: target 1 insC 3' of 15,insU 3' of 4 (mixed)
RNA 1: B1 RNA 1
RNA 2: B5 RNA 2 with U38C, C51U, G52C
B31: target 1 insG 3' of 19,insU 3' of 15 (mixed)
RNA 1: B1 RNA 1
RNA 2: B1 RNA 2 with A34G, G35A, U36G, C39U
B32: target 1 insC 3' of 15,insC 3' of 9 (mixed)
RNA 1: B1 RNA 1
RNA 2: B5 RNA 2 with U38C, U45C, C46U, G48C, C49G, U50C, C51U, G52C
B33: target 1 insC 3' of 5,insG 3' of 3 (mixed)
RNA 1: B1 RNA 1
RNA 2: GGGAAUGGAUCCACAUCUACGAAUUCGUACCAUAGAGAGGUUAUCCGCCUGCACCGAGAUCGGAAGAGCACACGU
B34: target 1 insC 3' of 15,insU 3' of 2 (mixed)
RNA 1: B1 RNA 1
RNA 2: B5 RNA 2 with U38C, G52U

molecular target: T1, EsCas13d, nuclease-dead; assay: crRNA (strand 1, pre-loaded); Mg2+; 40 mM Tris-HCl pH 7.5, 150 mM NaCl, 6 mM MgCl2, 1 mM DTT, 0.1% Tween-20, 0.2 mg/ml BSA; 25 C; 10 min per concentration, then washed; conditions: tags: His6-TwinStrep-SUMO cleaved; N-terminal SNAP kept (SNAP-Surface 488); label: 3' end held by stalled T7 RNA polymerase

Binder | Kd [nM]
B1 | 26.1 ± 1.8
B2 | 6.7 ± 0.4
B3 | 15.6 ± 0.9
B4 | 56 ± 11
B5 | 9.7 ± 0.7
B6 | 18 ± 1.7
B7 | 43 ± 5
B8 | 38 ± 8
B9 | 12.3 ± 1.2
B10 | 13.3 ± 1.6
B11 | 13.8 ± 0.7
B12 | 49 ± 6
B13 | 35 ± 6
B14 | 68 ± 11
B15 | 17.4 ± 0.7
B16 | 44 ± 4
B17 | 56 ± 10

Binder | Kd [nM]
B18 | 34 ± 4
B19 | 10.4 ± 0.4
B20 | 6.5 ± 0.32
B21 | 73 ± 6
B22 | 10.8 ± 0.6
B23 | 38 ± 7
B24 | 14 ± 2.2
B25 | 11.3 ± 0.7
B26 | 8.1 ± 0.5
B27 | 64 ± 13
B28 | 13 ± 0.8
B29 | 4.12 ± 0.33
B30 | 14.3 ± 0.6
B31 | 60 ± 9
B32 | 20 ± 1.7
B33 | 24.9 ± 2.3
B34 | 20.5 ± 1.8
